Marks after values point to notes of the source that are not given here.
Experiments:
[1] = system: lung cancer cells H460; test: Killing of tumor cells by stimulated T cells, CytoTox 96 non-radioactive cytotoxicity assay; conditions: T cells stimulated with 40 μg/mL for 4 days, effector-target ratio 20:1
Procedure: CytoTox 96 non-radioactive cytotoxicity assay was used to detect the killing effect of L1, L2, D1 and D2 polypeptides (40 μg/mL) on lung cancer cells H460 after stimulating human T lymphocytes for 4 days, respectively.

[2] = system: colon cancer cell line SW480; test: as above; type: cell-based, human; conditions: effector-target ratio 30:1
Procedure: (§1) Three protein concentrations (20 μg/mL, 40 μg/mL, 80 μg/mL) of TAT-SHP2-N-SH2 fusion protein were selected to stimulate human T lymphocytes and the killing effect on tumor cells MDA-MB-231 and SW480, respectively at an effector-target ratio of 30:1 was detected by CytoTox 96 non-radioactive cytotoxicity assay.

[3] = system: breast cancer cell line MDA-MB-231; test: as above; type: cell-based, human; conditions: effector-target ratio 30:1
Procedure: as §1

[4] = system: PD-L1-KO-EMT6; test: PD-L1 knockout EMT-6 breast cancer xenografts in BALB/c mice; type: in vivo
Excerpt: Tumor weight of mice after 23 d dissection; b. Tumor size; c. Tumor growth curve; Unpaired t-test, compared with control group, *P<0.05, **P<0.01, ***P<0.001.
Recombinant TAT-N-SH2 fusion protein and L1 (TAT-SHP2-C-SH2) polypeptide target the ITIM motif of inhibitory receptors. […] To this end, we constructed a breast cancer EMT-6 cell line stably knocked out PD-L1 (PD-L1-KO-EMT6), inoculated into the mouse mammary fat pad, and the recombinant TAT-N-SH2 fusion protein (N5) and TAT-SHP2-C-SH2 polypeptide (C5) were administered by intraperitoneal injection at 5 μg/mouse, respectively and at the same time, a dose of 50 μg/mouse αPD-1 antibody (αPD-1) was used as the control drug.

[5] = system: MC38 colon cancer; test: MC38 colon cancer mouse subcutaneous tumor-bearing model; type: in vivo, mice
Excerpt: A subcutaneous tumor model of MC38 colon cancer mice was established.

[6] = system: ERK, AKT and JNK; test: Phosphorylation of ERK, AKT and JNK in T lymphocytes, Western-blot; type: cell-based; conditions: T lymphocytes stimulated 3 days, compared with untreated group
Procedure: TAT-SHP2-N-SH2 fusion protein treatment group; c. TAT-SHP2 C-SH2 polypeptide treatment group; b, d. According to Western-blot results, with β-actin as an internal reference, grayscale analysis of the phosphorylation expression of JNK, AKT and ERK proteins mediated by T lymphocytes is performed. Unpaired t-test, compared with negative control, **p<0.01, NS has no statistical difference.
The T lymphocytes stimulated by recombinant TAT-N-SH2 fusion protein and L1 (TAT-SHP2-C-SH2) polypeptide for 3 days were collected to detect the changes in the phosphorylation levels of ERK, AKT and JNK molecules.

[7] = system: T lymphocytes; test: T lymphocyte proliferation detected by CFSE; type: cell-based; conditions: 80 μg/mL, 3 days, control group 62.83%
Procedure: Compared with the control group, p>0.05 has no statistical significance.
To test whether recombinant TAT-N-SH2 fusion protein and L1 (TAT-SHP2-C-SH2) polypeptide can enhance the proliferation of T lymphocytes, we used 80 μg/mL TAT-SHP2-N-SH2 fusion protein and TAT-SHP2-C-SH2 polypeptide to stimulate T lymphocytes for 3 days, respectively, the proliferation of T lymphocytes was detected by CFSE.

[8] = system: MC38 colon cancer; test: MC38 colon cancer in immunodeficient nude mice; type: in vivo
Excerpt: Tumor weight of mice after 30 d dissection; b. Tumor size; c. Tumor growth curve; Unpaired t-test, compared with control group, NS: no statistical difference.
In order to exclude the direct inhibitory effect of recombinant TAT-N-SH2 fusion protein and L1 (TAT-SHP2-C-SH2) polypeptide on tumors, we selected immunodeficient nude mice to inoculate MC38 colon cancer tumors, and started administration 14 days after tumor formation, 4 days to measure the tumor volume, after 30 days, the mice were sacrificed for dissection, and the tumor weight was measured.

[9] = system: T lymphocytes; test: T lymphocyte apoptosis, Annexin V-FITC/PI flow cytometry; type: cell-based; conditions: 80 μg/mL, 3 days, PD-L1 coated plate, compared with control group
Procedure: The resuspended cells are added to different groups to treat untreated groups SHP2-NC, SHP2-N-SH2 (80 μg/mL), TAT-SHP2-C-SH2 polypeptide (80 μg/mL), and then continues to culture on EASY-T stimulated plates for 3 d (50 ng of PD-L1 antibody is added 3 hours before adding the cell mixture to coat a 24-well plate at 37° C.), and the cells are collected, detection by flow cytometry after FITC and PI staining; e According to the results of flow cytometry, the proportion of apoptotic cells is counted, compared with the control group, *p<0.05 or **p<0.01.
T lymphocytes were stimulated with recombinant TAT-N-SH2 fusion protein and L1 polypeptide for 3 days and the apoptosis of T lymphocytes in different treatment groups was detected by flow cytometry. […] FIG. 13e, according to the results of flow cytometry, the proportion of apoptotic cells was counted, compared with the control group, *p<0.05 or **p<0.01.

[10] = system: EMT-6 breast cancer; test: EMT-6 breast cancer in immune-deficient nude mice; type: in vivo; conditions: groups C5/N5, once every other day, 8 doses
Excerpt: Tumor weight of mice after 21 d dissection; b. Tumor size; c. Tumor growth curve; NS: no statistical difference.
At the same time, we selected immune-deficient nude mice to inoculate EMT-6 breast cancer tumors. After 5 days of tumor formation, they were randomly divided into three groups with 6 mice in each group. Start the administration, the administration dose is the same as above, administered once every other day for a total of 8 doses, 4 days to measure tumor size, the growth curve was drawn, and the mice were sacrificed to measure the body weight on day 21.

[11] = system: IL-2; test: Cytokine IL-2 secreted by T lymphocytes; type: cell-based; conditions: T lymphocytes stimulated 3 days, compared with control group
Excerpt: The T lymphocytes stimulated by recombinant TAT-N-SH2 fusion protein and L1 polypeptide for 3 days were collected to detect the level of cytokine IL-2 secreted.

[12] = system: EMT breast cancer; test: EMT breast cancer mouse subcutaneous tumor-bearing model; type: in vivo, mice
Procedure: Tumor weight of mice in different administration groups after 21 d dissection; b. Tumor size; Unpaired t-test, compared with control group, *p<0.05, **p<0.01, ***p<0.001.
We further evaluated the effects of TAT-SHP2SHP2-N-SH2 fusion protein and TAT-SHP2SHP2-C-SH2 polypeptide on tumor growth in mice by establishing a subcutaneous tumor-bearing model of EMT breast cancer mice. We used TAT-SHP2SHP2-C-SH2 polypeptide at 5 μg/mouse (C5), 10 μg/mouse (C10), 15 μg/mouse (C15) and 2 μg/mouse (N2), 5 μg/mouse (N5), 10 μg/mouse (N10), 15 μg/mouse (N15) of TAT-SHP2SHP2-N-SH2 fusion protein were administered by intraperitoneal injection and at the same time, the dose of 50 μg/mouse αPD-1 antibody (αPD-1) was used as the positive control drug.

[13] = system: SW480; test: Direct killing of tumor cells, zenCell owl live cell imaging; type: cell-based; conditions: 20, 40, 80 μg/mL, no T cells
Procedure: (§2) In order to detect whether the recombinant TAT-N-SH2 fusion protein and L1 polypeptide have direct killing effect on tumor cells, we co-cultured different concentrations (20 μg/mL, 40 μg/mL, 80 μg/mL) of recombinant TAT-N-SH2 fusion protein and L1 polypeptide with tumor cells MDA-MB-231 and SW480, and applied zenCell owl live cell dynamic imaging analysis system to observe its effect on tumor cells in real time.

[14] = system: MDA-MB-231; test: as above; type: cell-based; conditions: 20, 40, 80 μg/mL, no T cells
Procedure: as §2

[15] = T cells stimulated with 20 μg/ml
[16] = T cells stimulated with 40 μg/ml
[17] = T cells stimulated with 80 μg/ml
[18] = Table 4, 1.25 μg/mouse intraperitoneal, 8 administrations
[19] = Table 4, 2.5 μg/mouse intraperitoneal, 8 administrations
[20] = Table 4, 5 μg/mouse intraperitoneal, 8 administrations
[21] = Table 4, 10 μg/mouse intraperitoneal, 8 administrations
[22] = Table 5, 5 μg/mouse intraperitoneal

## CC(C)C[C@@H](NC(=O)[C@H](NC(=O)[C@@H](Cc1ccccc1)NC(=O)[C@@H](CC(=O)O)NC(=O)CNC(=O)[C@H]1CCCN1C(=O)[C@@H](Cc1c[nH]cn1)NC(=O)[C@@H](CO)NC(=O)[C@@H](CCC(N)=O)NC(=O)[C@@H](CO)NC(=O)[C@@H](CCC(=O)O)NC(=O)[C@@H](CCCNC(=N)N)NC(=O)[C@H](NC(=O)[C@H]1CCCN1C(=O)[C@H]1CCCN1C(=O)[C@@H](CCCNC(=N)N)NC(=O)[C@@H](CCCNC(=N)N)NC(=O)[C@@H](CCCNC(=N)N)NC(=O)[C@@H](CCC(N)=O)NC(=O)[C@@H](CCCNC(=N)N)NC(=O)[C@@H](CCCNC(=N)N)NC(=O)[C@@H](CCCCN)NC(=O)[C@@H](CCCCN)NC(=O)[C@@H](CCCNC(=N)N)NC(=O)CNC(=O)[C@H](N)Cc1ccc(O)cc1)C(C)C)C(C)C)C(=O)O [D1]
[1]
  Cytotoxicity (%): 39.43 ± 1.31 %

## CC(C)C[C@H](NC(=O)[C@@H](NC(=O)[C@H](Cc1ccccc1)NC(=O)[C@H](CC(=O)O)NC(=O)CNC(=O)[C@@H]1CCCN1C(=O)[C@H](Cc1c[nH]cn1)NC(=O)[C@H](CO)NC(=O)[C@H](CCC(N)=O)NC(=O)[C@H](CO)NC(=O)[C@H](CCC(=O)O)NC(=O)[C@H](CCCNC(=N)N)NC(=O)[C@@H](NC(=O)[C@@H]1CCCN1C(=O)[C@@H]1CCCN1C(=O)[C@H](CCCNC(=N)N)NC(=O)[C@H](CCCNC(=N)N)NC(=O)[C@H](CCCNC(=N)N)NC(=O)[C@H](CCC(N)=O)NC(=O)[C@H](CCCNC(=N)N)NC(=O)[C@H](CCCNC(=N)N)NC(=O)[C@H](CCCCN)NC(=O)[C@H](CCCCN)NC(=O)[C@H](CCCNC(=N)N)NC(=O)CNC(=O)[C@@H](N)Cc1ccc(O)cc1)C(C)C)C(C)C)C(=O)O [L1, YGRKKRRQRRR-PP-VRESQSHPGDFVL]
[2]; [15]
  Cytotoxicity (%) SW480: 20.24 ± 8.943^ns %
[2]; [16]
  Cytotoxicity (%) SW480: 31.38 ± 3.779 %
[2]; [17]
  Cytotoxicity (%) SW480: 40.19 ± 8.373 %
[3]; [15]
  Cytotoxicity (%) MDA-MB-231: 5.933 ± 3.955^ns %
[3]; [16]
  Cytotoxicity (%) MDA-MB-231: 20.55 ± 1.157 %
[3]; [17]
  Cytotoxicity (%) MDA-MB-231: 34.8 ± 7.424 %
[1]
  Cytotoxicity (%): 33.23 ± 2.32 %

B1: TAT-SHP2-N-SH2 fusion protein: TAT penetrating peptide connected to N-terminal SH2 domain of SHP2 through glycine and serine (TAT-Gly-Ser-N-SH2); SEQ ID NO.:4 (protein)
chain: YGRKKRRQRRRGSRWFHPNITGVEAENLLLTRGVDGSFLARPSKSNPGDFTLSVRRNGAVTHIKIQNTGDYYDLYGGEKFATLAELVQYYMEHHGQLKEKNGDVIELKYPLN
modifications: the fusion protein
[4]; 5 μg/mouse intraperitoneal
  Tumor inhibition rate %: 60.5%
[4]; 5 μg/mouse intraperitoneal, dissection after 23 d
  Tumor weight (g): 0.34 ± 0.20** g
[4]; N5 and C5 5 μg/mouse, αPD-1 antibody 50 μg/mouse
  effect on growth of PD-L1-KO-EMT6 tumors: significantly inhibit the growth of PD-L1-KO-EMT6 tumors
[5]; [18]
  Tumor inhibition rate %: 55.3%
  Tumor weight: 0.36 ± 0.11 g
[5]; [19]
  Tumor inhibition rate %: 53.5%
  Tumor weight: 0.38 ± 0.11 g
[5]; [20]
  Tumor inhibition rate %: 80.9%
  Tumor weight: 0.16 ± 0.03 g
[5]; [21]
  Tumor inhibition rate %: 57.8%
  Tumor weight: 0.34 ± 0.08 g
[5]; [22]
  Tumor inhibition rate %: 77.1%
  Tumor weight: 0.26 ± 0.07 g
[6]
  phosphorylation levels of ERK, AKT and JNK: the expression levels of p-ERK and p-AKT in the TAT-SHP2-N-SH2 fusion protein stimulation group have the most obvious changes
[2]; [15]
  Cytotoxicity (%) SW480: 23.51 ± 1.432 %
[2]; [16]
  Cytotoxicity (%) SW480: 44.42 ± 5.78 %
[2]; [17]
  Cytotoxicity (%) SW480: 50.64 ± 2.068 %
[3]; [15]
  Cytotoxicity (%) MDA-MB-231: 15.11 ± 6.483^ns %
[3]; [16]
  Cytotoxicity (%) MDA-MB-231: 12.55 ± 3.037 %
[3]; [17]
  Cytotoxicity (%) MDA-MB-231: 21.78 ± 3.021 %
[7]
  proliferation rate of T lymphocytes: 61.05%
[8]; groups C5/N5
  Tumor inhibition rate %: 9.9%
[8]; groups C5/N5, sacrificed after 30 days
  Tumor weight (g): 0.25 ± 0.06^ns g
[9]
  apoptosis of T lymphocytes: significantly decreased
[10]
  Tumor inhibition rate %: 8.3%
[10]; day 21
  Tumor weight (g): 0.82 ± 0.13^ns g
[11]
  level of IL-2 secreted by T lymphocytes: significantly increased
[12]; 2 μg/mouse intraperitoneal
  Tumor inhibition rate %: 54.9%
  Tumor weight (g): 0.56 ± 0.11* g
[12]; 5 μg/mouse intraperitoneal
  Tumor inhibition rate %: 70.3%
[12]; 5 μg/mouse intraperitoneal, dissection after 21 d
  Tumor weight (g): 0.37 ± 0.10** g
[12]; 10 μg/mouse intraperitoneal
  Tumor inhibition rate %: 63%
  Tumor weight (g): 0.46 ± 0.12** g
[12]; 15 μg/mouse intraperitoneal
  Tumor inhibition rate %: 47.9%
  Tumor weight (g): 0.64 ± 0.15* g
[13]
  direct toxic effect on tumor cells: no direct toxic effect
[14]
  direct toxic effect on tumor cells: no direct toxic effect
